# Laboratory results published in the supplement of paper PMC7877785.
# ± gives the uncertainty stated by the source.
# Experiment: self-splicing fitness, log relative to wild type (ln ratio); higher = more splicing; Tetrahymena group I intron in knt gene, E. coli kanamycin selection, DiMSum; sequences stand for … in CUCUCU…GGAGGGAAAAGUUAUCAGGCAUGCACCUGGUAGCUAGUCUUUAAACCAAUAGAUUGCAUCGGUUUAAAAGGCAAGACCGUCAAAUUGCGGGAAAGGGGUCAACAGCCGUUCAGUACCAAGUCUCAGGGGAAACUUUGAGAUGGCCUUGCAAAGGGUAUGGUAAUAAGCUGACGGACAUGGUCCUAACCACGCAGCCAAGUCCUAAGUCAACAGAUCUUCUGUUGAUAUGGAUGCAGUUCACAGACUAAAUGUCGGUCGGGGAAGAUGUAUUCUUCUCAUAAGAUAUAGUCGGACCUCUCCUUAAUGGGAGCUAGCGGAUGAAGUGAUGCAACACUGGAGCCGCUGGGAACUAAUUUGUAUGCGAAAGUAUAUUGAUUAGUUUUGGAGUACUCGUGGUCG
# Procedure, shortened: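 DiMSum derived fitness as the error-weighted combination of fold changes across replicates, kanamycin versus no kanamycin, normalised to wild type. E. coli BL21(DE3) held the library, which randomised all eight P1ex-region intron nucleotides within the knt kanamycin-resistance gene on pET-22b(+). Six replicate transformations grew overnight at 37°C or 30°C on LB agar with or without 25 μg/mL kanamycin, also containing 100 μg/mL carbenicillin, 50 μM IPTG and 0.2% rhamnose, and pooled colonies were amplicon-sequenced on an Illumina HiSeq 2500.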
Sequence,self-splicing fitness (ln) (30 °C),self-splicing fitness (ln) (37 °C)
CCAAAGCAAUAUUACGUUCU,-3.78 ± 0.26,-2.3 ± 0.23
CAAUAGCAAUAUUACGUGGA,-3.29 ± 0.25,-2.92 ± 0.22
AAGCAGCAAUAUUACGGUUG,-3.08 ± 0.14,-2.01 ± 0.15
GAAAAGCAAUAUUACGCGAU,-2.88 ± 0.28,-2.32 ± 0.33
UACGAGCAAUAUUACGCGAU,-4.05 ± 0.3,-2.28 ± 0.22
CCAGAGCAAUAUUACGUCCU,-4.05 ± 0.22,-2.48 ± 0.25
GAAAAGCAAUAUUACGAGCU,-0.618 ± 0.069,-0.352 ± 0.091
CGUCAGCAAUAUUACGUGCG,-4.56 ± 0.31,-2.21 ± 0.19
AUGUAGCAAUAUUACGACCU,-0.739 ± 0.28,-0.136 ± 0.34
CUCAAGCAAUAUUACGGUUC,-3.65 ± 0.17,-2.74 ± 0.16
UAGAAGCAAUAUUACGAGCC,–,-2.23 ± 0.26
GGGCAGCAAUAUUACGGGCA,-2.14 ± 0.13,-0.0115 ± 0.09
AGUGAGCAAUAUUACGCCGU,-2.39 ± 0.38,–
UCAAAGCAAUAUUACGACGA,-0.51 ± 0.074,0.278 ± 0.095
CAAAAGCAAUAUUACGGAGU,-3.64 ± 0.14,-2.56 ± 0.16
GUAUAGCAAUAUUACGGGCG,-2.27 ± 0.17,-0.207 ± 0.18
AGCCAGCAAUAUUACGGUCA,-0.0408 ± 0.09,0.4 ± 0.093
AACAAGCAAUAUUACGAGGC,-3.07 ± 0.15,-3.27 ± 0.28
AUUGAGCAAUAUUACGAGCC,-3.44 ± 0.26,-2.48 ± 0.3
GAAAAGCAAUAUUACGGGAU,-2.18 ± 0.14,-1.26 ± 0.12
ACGGAGCAAUAUUACGUAGU,-2.37 ± 0.11,-1.36 ± 0.12
AACAAGCAAUAUUACGAUAA,-1.62 ± 0.084,-1.15 ± 0.11
GGAAAGCAAUAUUACGCGAG,-0.597 ± 0.1,0.758 ± 0.1
AAAUAGCAAUAUUACGCUAC,–,-1.68 ± 0.3
ACGGAGCAAUAUUACGCCUA,-2.13 ± 0.28,-1.6 ± 0.27

Sequence,self-splicing fitness (ln) (30 °C),self-splicing fitness (ln) (37 °C)
GGGCAGCAAUAUUACGGCUG,-2.27 ± 0.15,-1.8 ± 0.18
AACGAGCAAUAUUACGGUCG,-2.14 ± 0.13,-1.02 ± 0.14
AAGGAGCAAUAUUACGACCA,–,-1.82 ± 0.31
UUCUAGCAAUAUUACGGGCC,–,-2.38 ± 0.45
CUAGAGCAAUAUUACGAUCG,0.45 ± 0.066,0.245 ± 0.088
UUCAAGCAAUAUUACGAUAC,-2.1 ± 0.17,-2.58 ± 0.48
GUGUAGCAAUAUUACGCGCU,–,-1.27 ± 0.18
UAUCAGCAAUAUUACGCUCA,-0.0488 ± 0.092,0.0773 ± 0.11
GUCAAGCAAUAUUACGCCCA,-1.4 ± 0.15,-1.11 ± 0.14
GUUAAGCAAUAUUACGUUAG,-2.47 ± 0.13,-1.32 ± 0.14
ACCGAGCAAUAUUACGUUUU,-3.3 ± 0.15,-2.59 ± 0.15
GUGGAGCAAUAUUACGUCAC,-3.5 ± 0.39,-1.99 ± 0.26
GUCCAGCAAUAUUACGAGCC,-1.18 ± 0.15,-0.519 ± 0.16
GGACAGCAAUAUUACGCACU,-1.12 ± 0.086,-0.6 ± 0.13
CGAAAGCAAUAUUACGGCUA,-1.72 ± 0.13,-1.6 ± 0.14
GUGUAGCAAUAUUACGCUUA,-1.45 ± 0.29,0.408 ± 0.25
ACAAAGCAAUAUUACGACUU,-0.336 ± 0.06,0.0905 ± 0.079
UAGUAGCAAUAUUACGGUCA,-0.074 ± 0.16,-0.852 ± 0.18
ACUGAGCAAUAUUACGCCUU,-1.55 ± 0.2,-0.418 ± 0.24
AAUAAGCAAUAUUACGACCC,-0.924 ± 0.12,0.479 ± 0.17
UGCCAGCAAUAUUACGCGCC,-1.15 ± 0.17,-0.705 ± 0.23
CAAUAGCAAUAUUACGCGGA,-3.59 ± 0.35,-2.05 ± 0.16
GCCGAGCAAUAUUACGAGGA,-1.32 ± 0.11,-0.747 ± 0.1
UGAAAGCAAUAUUACGACAA,0.219 ± 0.1,-0.111 ± 0.13
UGACAGCAAUAUUACGAAAA,-2.4 ± 0.35,-1.29 ± 0.19

Sequence,self-splicing fitness (ln) (30 °C),self-splicing fitness (ln) (37 °C)
AGUGAGCAAUAUUACGGUAG,-3.02 ± 0.4,–
GGCAAGCAAUAUUACGUCGG,-3.42 ± 0.2,-2.47 ± 0.32
ACUGAGCAAUAUUACGCGUG,-2.2 ± 0.092,-1.05 ± 0.1
UUGAAGCAAUAUUACGAUCA,-0.786 ± 0.1,0.00258 ± 0.15
GGUCAGCAAUAUUACGUCAU,-0.37 ± 0.088,0.00388 ± 0.12
UAUCAGCAAUAUUACGGUCU,-0.719 ± 0.092,-0.878 ± 0.11
UUUCAGCAAUAUUACGCAGU,-4.25 ± 0.31,-1.59 ± 0.17
UAUGAGCAAUAUUACGCGGA,-2.39 ± 0.25,-1.69 ± 0.24
UCUUAGCAAUAUUACGAACG,-0.815 ± 0.15,-1 ± 0.2
UAAUAGCAAUAUUACGCGUU,-4.21 ± 0.17,-2.66 ± 0.15
GUGUAGCAAUAUUACGCCAU,-3.15 ± 0.29,-1.51 ± 0.22
CCUAAGCAAUAUUACGGACA,-1.7 ± 0.31,-2.24 ± 0.31
GGGUAGCAAUAUUACGAAUU,-1.04 ± 0.084,-0.438 ± 0.11
GUCAAGCAAUAUUACGCUAU,-4.05 ± 0.17,-3.81 ± 0.15
AGACAGCAAUAUUACGAUAU,-1.93 ± 0.064,-0.802 ± 0.07
CAAGAGCAAUAUUACGGUGU,-3.52 ± 0.15,-2.08 ± 0.17
GACGAGCAAUAUUACGACAG,–,-1.89 ± 0.23
UAUUAGCAAUAUUACGGACA,-1.16 ± 0.2,0.703 ± 0.28
CGGUAGCAAUAUUACGGGUU,-3.51 ± 0.21,-3.67 ± 0.22
ACAAAGCAAUAUUACGUCAU,-3.08 ± 0.12,-2.4 ± 0.14
UAAUAGCAAUAUUACGGCGA,-1.6 ± 0.21,-0.266 ± 0.22
CGCCAGCAAUAUUACGGAGG,-3.32 ± 0.18,-0.355 ± 0.12
AACAAGCAAUAUUACGCCUA,-0.12 ± 0.059,0.231 ± 0.065
UCGCAGCAAUAUUACGCACG,-2.26 ± 0.16,-0.255 ± 0.15
CUUGAGCAAUAUUACGGGCC,–,-2.81 ± 0.34

Sequence,self-splicing fitness (ln) (30 °C),self-splicing fitness (ln) (37 °C)
ACUAAGCAAUAUUACGCCAG,-0.955 ± 0.14,-0.843 ± 0.2
AUAUAGCAAUAUUACGACUG,-1.47 ± 0.14,-1.65 ± 0.21
GUACAGCAAUAUUACGGCAU,-0.301 ± 0.081,-0.278 ± 0.11
CGCGAGCAAUAUUACGUCCA,–,-1.96 ± 0.32
CGACAGCAAUAUUACGACGA,-1.01 ± 0.12,0.0299 ± 0.14
CUAAAGCAAUAUUACGAACA,-2.48 ± 0.12,-2.03 ± 0.2
CCAUAGCAAUAUUACGACGC,-2.27 ± 0.26,-2.51 ± 0.39
CUUAAGCAAUAUUACGUUCA,-2.9 ± 0.27,-3.79 ± 0.47
CCUAAGCAAUAUUACGAGGU,-4.68 ± 0.25,-3.38 ± 0.18
AAUCAGCAAUAUUACGACGG,-1.73 ± 0.097,-0.991 ± 0.13
GACGAGCAAUAUUACGAGGU,-3.81 ± 0.28,-2.38 ± 0.27
GCCGAGCAAUAUUACGGCGC,-1.48 ± 0.23,-0.221 ± 0.23
GAUUAGCAAUAUUACGACCC,-0.91 ± 0.24,0.12 ± 0.24
ACCAAGCAAUAUUACGACUU,-3.83 ± 0.19,-1.85 ± 0.12
GUUGAGCAAUAUUACGUAAA,-2.7 ± 0.2,-1.73 ± 0.19
UAAGAGCAAUAUUACGAUGU,-4.13 ± 0.26,-1.82 ± 0.2
CAGCAGCAAUAUUACGCACC,-2.66 ± 0.29,-1.32 ± 0.47
CUCCAGCAAUAUUACGCCAU,-3.28 ± 0.31,-2.34 ± 0.25
CGGGAGCAAUAUUACGUUUC,-3.92 ± 0.46,–
UACGAGCAAUAUUACGUAAU,-4.22 ± 0.31,-1.43 ± 0.19
CUUUAGCAAUAUUACGAAAC,–,-1.65 ± 0.32
UGACAGCAAUAUUACGGUGA,-0.731 ± 0.052,0.000318 ± 0.071
AAGCAGCAAUAUUACGACUU,-0.223 ± 0.074,-0.323 ± 0.086
GACUAGCAAUAUUACGUGAC,-1.34 ± 0.085,-1.39 ± 0.12
